Source: patent publication US9879058B2, “Use of compounds that selectively modulate astrocytic release of substances through hemichannels of connexins and pannexins, without influencing gap junctions, for the treatment of psychiatric disorders” (Universidad Andres Bello, priority 2012, dated 2018)
“Also recorded” adds a separate entry of the source. No end group written: not given here.

How the values were obtained:
[1] = biological target: Cx43 gap junction channel (Homo sapiens, UniProt P17302); conditions: cited from earlier work
[2] = test system: hippocampal primary neuronal cultures; assay: ATP and glutamate release in neuronal cultures; type: cell-based, rat; conditions: peptide 1 mM; neuronal cultures without astrocytes
Procedure: G.2. Neuronal cultures: Hippocampal neurons were obtained from hippocampus of E18 rats. Briefly, hippocampi were dissected as mentioned above for astrocyte cultures. Cells were seeded directly on poly-L-ornithine coated coverslips (1×10^5 cells/coverslip) in Neurobasal medium supplemented with penicillin (5 U/ml), streptomycin (5 μg/ml), B27 supplement and glutamax. Partial medium changes (¼) were done twice a week. H. Dye uptake: For single image visualization of dye uptake, astrocytes were bathed in recording solution [in mM: NaCl (148), KCl (5), CaCl2 (1.8), MgCl2 (1), glucose (5), HEPES (5), pH=7.4] containing 5 μM ethidium (Etd) (Sigma-Aldrich, St-Louis, Mo.), and fluorescence intensity was recorded for 10 min in selected cells (ROI, regions of interest). […] Metafluor software (version 6.2R5, Universal Imaging Co., Downingtown, Pa., USA) was used for off-line image analysis and fluorescence quantification.
I. Measurement of ATP and glutamate release induced by TAT-Cx43L2: Neurons were plated in multi well culture trays (10^6 cells/well/0.5 ml) and 48 h later were used for experiments. Extracellular ATP was measured by luciferin/luciferase bioluminescence assay kit (Sigma-Aldrich, St. Louis, Mo., USA). […]

Cx43 hemichannels [3] = biological target: T1, Cx43 hemichannels (Rattus norvegicus, UniProt P08050); assay: Ethidium (Etd) dye uptake in astrocytes; type: cell-based; conditions: 10 min preincubation
T1 construct: endogenous in cells; host or cells: primary hippocampal astrocytes of newborn (PN1) rats
Procedure: F. Immunohistochemistry: Brain slices previously fixed in buffered 4% paraformaldehyde and maintained in 30% sucrose were mounted in gelatin coated glass slides. After rinsing with PBS, slices were blocked and permeabilized with 1% bovine serum albumin (BSA, Sigma-Aldrich), and 3% Triton X-100 in PBS for 1 h at room temperature. After rinsing again, sections were incubated overnight at 4° C. with the primary anti-Cx43 antibody (Sigma). Afterwards, sections were rinsed with PBS and incubated for 1 h at 37° C. with Alexa Fluor® 488-conjugated secondary antibody. […]
G.2. […] H. Dye uptake: For single image visualization of dye uptake, astrocytes were bathed in recording solution [in mM: NaCl (148), KCl (5), CaCl2 (1.8), MgCl2 (1), glucose (5), HEPES (5), pH=7.4] containing 5 μM ethidium (Etd) (Sigma-Aldrich, St-Louis, Mo.), and fluorescence intensity was recorded for 10 min in selected cells (ROI, regions of interest). […] Metafluor software (version 6.2R5, Universal Imaging Co., Downingtown, Pa., USA) was used for off-line image analysis and fluorescence quantification.
For data representation, the average of two independent background fluorescence intensity measurements (FB, expressed as arbitrary units, AU) was subtracted from the fluorescence intensity in each cell (F1). […] Slopes of dye uptake were calculated using Microsoft Excel software and expressed as AU/min. […]

Cx43 hemichannels [4] = biological target: Cx43 hemichannels (Homo sapiens, UniProt P17302); conditions: cited from earlier work
Chain of Cx43 hemichannels (Homo sapiens, UniProt P17302) (P17302 whole entry): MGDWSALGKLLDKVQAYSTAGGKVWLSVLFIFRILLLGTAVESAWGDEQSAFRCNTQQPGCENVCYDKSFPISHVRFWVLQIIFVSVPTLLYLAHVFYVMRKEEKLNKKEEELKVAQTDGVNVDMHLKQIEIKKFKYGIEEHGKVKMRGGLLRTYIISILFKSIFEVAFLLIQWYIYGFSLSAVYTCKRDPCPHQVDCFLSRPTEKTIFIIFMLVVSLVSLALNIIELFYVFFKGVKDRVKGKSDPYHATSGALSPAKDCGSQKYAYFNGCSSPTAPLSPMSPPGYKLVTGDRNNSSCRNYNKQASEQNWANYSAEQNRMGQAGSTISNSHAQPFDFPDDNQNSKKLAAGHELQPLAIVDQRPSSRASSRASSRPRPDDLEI

T1 sequence (P08050 whole entry): as the sequence (P17302 whole entry) above, with D124E, I164V, K243R, S251T, A253P, A257S, Q263P, S344A, L347V counted along it
Chain of Cx43 gap junction channel (P17302 whole entry): as the sequence (P17302 whole entry) above

YGRKKRRQRRRDGANVDMHLKQIEIKKFKYGIEEHGK [TAT-Cx43L2, synthetic cell-permeable peptide corresponding to the Cx43L2 region (aa 119-144) of the cytoplasmic loop of Cx43]
effect on Cx43 gap junction channel communication, previously shown [1]: without affecting Cx43 gap junction channel communication
ATP release in neuronal cultures [2]: did not affect
glutamate release in neuronal cultures [2]: did not affect
hemichannel activity (Etd uptake) (Cx43 hemichannels [3]; control conditions): blocked astrocyte hemichannel activity; also recorded: inhibited hemichannel activity
hemichannel activity (Etd uptake) (Cx43 hemichannels [3]; divalent cation-free solution (DCFS)): complete inhibition of hemichannel activity; also recorded: reduced Etd uptake to the same level as in control cells
effect on Cx43 hemichannels, previously shown (Cx43 hemichannels [4]): selectively block Cx43 hemichannels
